In US20110239311:

Experiments:
[1] = test system: GST-NR2F6 fusion protein, wild-type, full-length (purified recombinant)
[2] = test system: GST-NR2F6 fusion protein, S83A mutant, full-length
[3] = test system: GST-NR2F6 fusion protein, S89A mutant, full-length
Chain of GST-NR2F6 fusion protein, S89A mutant, full-length (chain, as listed by the source S89A): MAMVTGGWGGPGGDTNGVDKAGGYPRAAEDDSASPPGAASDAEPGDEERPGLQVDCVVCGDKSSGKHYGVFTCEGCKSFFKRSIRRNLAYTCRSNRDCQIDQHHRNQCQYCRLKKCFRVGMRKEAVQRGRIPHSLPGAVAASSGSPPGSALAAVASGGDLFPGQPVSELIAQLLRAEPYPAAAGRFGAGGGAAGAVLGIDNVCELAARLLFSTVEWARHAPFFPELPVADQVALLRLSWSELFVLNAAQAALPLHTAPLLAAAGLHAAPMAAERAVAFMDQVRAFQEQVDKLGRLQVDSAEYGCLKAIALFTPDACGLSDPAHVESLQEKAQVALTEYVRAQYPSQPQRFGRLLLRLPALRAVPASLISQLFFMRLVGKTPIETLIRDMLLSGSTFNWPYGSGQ

Chain of recombinant PKCtheta (Q04759 whole entry): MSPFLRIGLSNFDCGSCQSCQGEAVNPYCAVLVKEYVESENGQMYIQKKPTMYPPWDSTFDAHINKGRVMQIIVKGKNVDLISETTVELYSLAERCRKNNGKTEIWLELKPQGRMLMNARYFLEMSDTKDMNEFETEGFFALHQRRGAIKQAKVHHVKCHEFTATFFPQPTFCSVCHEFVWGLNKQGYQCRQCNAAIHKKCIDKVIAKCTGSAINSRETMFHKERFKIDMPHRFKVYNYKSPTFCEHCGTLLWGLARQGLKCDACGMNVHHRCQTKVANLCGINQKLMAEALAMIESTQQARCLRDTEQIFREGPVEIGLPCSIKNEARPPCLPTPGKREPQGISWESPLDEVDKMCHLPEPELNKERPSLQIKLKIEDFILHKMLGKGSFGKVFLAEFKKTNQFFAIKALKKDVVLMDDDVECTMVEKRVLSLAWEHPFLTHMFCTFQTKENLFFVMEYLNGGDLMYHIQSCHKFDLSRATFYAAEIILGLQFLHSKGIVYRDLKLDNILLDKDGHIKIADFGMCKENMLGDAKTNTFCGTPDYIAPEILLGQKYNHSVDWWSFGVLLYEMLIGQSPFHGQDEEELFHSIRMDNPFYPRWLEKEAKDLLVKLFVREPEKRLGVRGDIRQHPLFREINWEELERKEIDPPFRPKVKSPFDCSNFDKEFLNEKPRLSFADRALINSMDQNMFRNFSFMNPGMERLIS
Chain of GST-NR2F6 fusion protein, wild-type, full-length (purified recombinant) (chain, as listed by the source): as the sequence (chain, as listed by the source S89A) above, with A89S counted along it
Chain of GST-NR2F6 fusion protein, S83A mutant, full-length (chain, as listed by the source S83A): as the sequence (chain, as listed by the source S89A) above, with S83A, A89S counted along it

Substance | in vitro protein kinase assay (32P incorporation into GST-NR2F6) [1] | in vitro protein kinase assay (32P incorporation into GST-NR2F6) [2] | in vitro protein kinase assay (32P incorporation into GST-NR2F6) [3]
Protein kinase A (PKA) | (but not PKCzeta or PKA) were able to phosphorylate recombinant NR2F6 in vitro |  | 
recombinant PKCalpha | PKCalpha, delta and theta (but not PKCzeta or PKA) were able to phosphorylate recombinant NR2F6 in vitro | This phosphorylation was lost after the predicted phosphorylation site at Ser-83 (but not at Ser-89) was mutated in the full-length NR2F6 protein | This phosphorylation was lost after the predicted phosphorylation site at Ser-83 (but not at Ser-89) was mutated in the full-length NR2F6 protein
recombinant PKCdelta | PKCalpha, delta and theta (but not PKCzeta or PKA) were able to phosphorylate recombinant NR2F6 in vitro | This phosphorylation was lost after the predicted phosphorylation site at Ser-83 (but not at Ser-89) was mutated in the full-length NR2F6 protein | This phosphorylation was lost after the predicted phosphorylation site at Ser-83 (but not at Ser-89) was mutated in the full-length NR2F6 protein
recombinant PKCtheta | PKCalpha, delta and theta (but not PKCzeta or PKA) were able to phosphorylate recombinant NR2F6 in vitro | This phosphorylation was lost after the predicted phosphorylation site at Ser-83 (but not at Ser-89) was mutated in the full-length NR2F6 protein | This phosphorylation was lost after the predicted phosphorylation site at Ser-83 (but not at Ser-89) was mutated in the full-length NR2F6 protein
